According to patent US20220242957A1 (MARENGO THERAPEUTICS, published 2022):

Tests used:
mouse CSF1R = biological target: T1, mouse CSF1R (mouse, UniProt P09581 20-977); experiment: flow cytometry on ExpiCHO cells transiently transfected with mouse CSF1R; goat anti-mouse Fc biotin and streptavidin-PE
T1 construct: whole, on cells; also called mCSF1R
T1 sequence (looked up): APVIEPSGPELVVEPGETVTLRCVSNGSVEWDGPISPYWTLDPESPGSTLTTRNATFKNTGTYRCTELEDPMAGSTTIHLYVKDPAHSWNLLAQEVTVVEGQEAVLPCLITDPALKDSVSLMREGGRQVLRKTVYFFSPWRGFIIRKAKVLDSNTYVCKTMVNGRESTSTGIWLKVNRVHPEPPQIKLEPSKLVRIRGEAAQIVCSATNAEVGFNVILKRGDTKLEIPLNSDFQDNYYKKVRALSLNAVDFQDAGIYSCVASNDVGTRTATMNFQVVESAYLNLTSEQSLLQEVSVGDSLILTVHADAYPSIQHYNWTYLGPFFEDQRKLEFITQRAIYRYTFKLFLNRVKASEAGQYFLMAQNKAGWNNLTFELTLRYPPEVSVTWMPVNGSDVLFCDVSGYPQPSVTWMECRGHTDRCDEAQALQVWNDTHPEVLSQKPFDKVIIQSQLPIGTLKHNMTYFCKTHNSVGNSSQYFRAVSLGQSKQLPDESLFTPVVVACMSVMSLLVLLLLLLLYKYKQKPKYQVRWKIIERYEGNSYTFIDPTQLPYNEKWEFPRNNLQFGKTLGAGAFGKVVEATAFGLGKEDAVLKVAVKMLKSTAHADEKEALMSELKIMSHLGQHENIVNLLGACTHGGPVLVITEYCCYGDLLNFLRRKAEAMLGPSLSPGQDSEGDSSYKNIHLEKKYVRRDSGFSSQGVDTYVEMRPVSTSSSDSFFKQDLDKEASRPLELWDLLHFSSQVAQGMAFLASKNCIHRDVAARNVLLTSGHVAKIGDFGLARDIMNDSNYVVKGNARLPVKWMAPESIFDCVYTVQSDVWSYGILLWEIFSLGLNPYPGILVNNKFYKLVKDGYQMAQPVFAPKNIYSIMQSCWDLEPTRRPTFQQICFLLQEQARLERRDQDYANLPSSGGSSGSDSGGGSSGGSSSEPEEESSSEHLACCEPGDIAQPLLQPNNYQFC
Protocol: (§1) ExpiCHO cells were transiently transfected with mouse CCR2, mouse CSF1R, or both mouse CCR2 and CSF1R, according to the manufacturer's instructions. In brief, the transfections were performed with ExpiCHO cells at a cell density of 5.6-6.3×10⁶ cells/mL and at least 95% viability. For each transfection, 25 μg of DNA was diluted with 1 mL of OptiPro SFM (Gibco 12309050) and filtered using spin-X centrifuge tube filters (Corning 8160). A solution of 920 µL of OptiPro and 80 μL of expifectamine was added to the filtered DNA, incubated for 1 minute at room temperature, and then added to the cells. On day 1 of the transfection, the cells were enhanced using 150 μL of ExpiCHO enhancer.
(§2) On day 2 of the transfection, the cells were washed with PBS containing 1% BSA (Sigma) and used to set 96-well V-bottom plates (Biotix AP-0350-9CVS) with 100,000 cells/well. UniTI-01 was added to the cells in serial dilutions and incubated for 1 hour at 4° C. The plates were washed twice with PBS containing 1% BSA. […] The plates were read on a CytoFLEX S (Beckman Coulter). Data were calculated as the median fluorescence intensity of the PE-positive population vs. the median fluorescence intensity of the PE-negative population. The data was normalized for the percent of total median fluorescence intensity.

mouse CCR2 = biological target: T2, mouse CCR2 (mouse, UniProt P51683 1-373); experiment: flow cytometry on ExpiCHO cells transiently transfected with mouse CCR2; goat anti-mouse Fc biotin and streptavidin-PE
T2 construct: whole, on cells; also called mCCR2
Protocol: as §1, §2

[1] = biological target: T3, mouse CCR2 and mouse CSF1R, both expressed on the same ExpiCHO cells (mouse, UniProt P51683 1-373; P09581 20-977); experiment: flow cytometry on ExpiCHO cells transiently transfected with both mouse CCR2 and mouse CSF1R; goat anti-mouse Fc biotin and streptavidin-PE
T3 construct: whole, on cells; Two separate membrane proteins on one cell, not a complex; also called CCR2 and CSF1R double positive cells; both mCCR2 and mCSF1R
Protocol: as §1, §2

T2 sequence (P51683 whole entry): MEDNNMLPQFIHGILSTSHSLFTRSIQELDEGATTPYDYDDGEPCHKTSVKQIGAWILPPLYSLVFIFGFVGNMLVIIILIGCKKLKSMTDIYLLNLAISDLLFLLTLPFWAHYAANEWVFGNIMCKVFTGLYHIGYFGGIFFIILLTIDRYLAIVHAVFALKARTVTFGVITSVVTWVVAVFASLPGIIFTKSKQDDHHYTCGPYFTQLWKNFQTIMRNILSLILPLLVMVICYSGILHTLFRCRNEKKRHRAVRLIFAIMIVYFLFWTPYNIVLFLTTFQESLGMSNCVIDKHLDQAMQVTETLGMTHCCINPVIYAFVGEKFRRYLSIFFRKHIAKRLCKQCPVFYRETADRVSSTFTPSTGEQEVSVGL
T3 sequence (P51683 whole entry, one chain of several): as the sequence (P51683 whole entry) above

B1: UniTI-01 (multispecific molecule #1, anti-CCR2/anti-CSF1R bispecific antibody) (bispecific antibody)
heavy 1: QVQLQESGPGLVQPSQTLSLTCTVSGFSLTDFSVHWVRQPPGKGLEWMGRIRSEGNTDYNSALKSRLSISRDTSKSQVFLKMNSLQTEDTAIYFCTRGDILGFGYWGQGVMVTVSSAQTTAPSVYPLAPGCGDTTSSTVTLGCLVKGYFPEPVTVTWNSGALSSDVHTFPAVLQSGLYTLTSSVTSSTWPSQTVTCNVAHPASSTKVDKKVERRTIKPCPPCKCPAPNLLGGPSVFIFPPKIKDVLMISLSPIVTCVVVDVSEDDPDVQISWFVNNVEVHTAQTQTHREDYNSTLRVVSALPIQHQDWMSGKEFKCKVNNKDLPAPIERTISKPKGSVRAPQVYVLPPCEEEMTKKQVTLWCMVTDFMPEDIYVEWTNNGKTELNYKNTEPVLDSDGSYFMYSKLRVEKKNWVERNSYSCSVVHEGLHNHHTTKSFSRTPGK
light 1: DIVMTQSPLSVSVTPGESASISCRSSKSLLHFKGITFVYWYLQKPGQSPQLLIFRMSSLASGVPDRFSGSGSETDFTLKISRVEAEDVGTYYCGQLLENPYTFGAGTKLELKRADAAPTVSIFPPSMEQLTSGGATVVCFVNNFYPRDISVKWKIDGSEQRDGVLDSVTDQDSKDSTYSMSSTLSLTKVEYERHNLYTCEVVHKTSSSPVVKSFNRNEC
heavy 2: QVQLQQSGAELVKPGSSVKISCKASGYTFTSNFMHWIKQQPGNGLEWIGWIYPGDGDTEYNQKFNGKATLTADKSSSTAYMQLSSLTSEDSAVYFCAVNYGGYVLDAWGQGASVTVSSAETTAPSVYPLAPGTALKSNSMVTLGCLVKGYFPEPVTVTWNSGALSSGVHTFPAVLQSGLYTLTSSVTVPSSTWSSQAVTCNVAHPASSTKVDKKIVPRECNTIKPCPPCKCPAPNLLGGPSVFIFPPKIKDVLMISLSPIVTCVVVDVSEDDPDVQISWFVNNVEVHTAQTQTHREDYNSTLRVVSALPIQHQDWMSGKEFKCKVNNKDLPAPIERTISKPKGSVRAPQVCVLPPPEEEMTKKQVTLSCAVTDFMPEDIYVEWTNNGKTELNYKNTEPVLDSDGSYFMVSKLRVEKKNWVERNSYSCSVVHEGLHNHHTTKSFSRTPGK
light 2: EIVLTQSPTTMAASPGEKVTITCRASSSTNYMSWYQQKSGASPKPWIYETSKLASGVPDRFSGSGSGTSYSFTISSMETEDAATYYCHQWSSTPLTFGSGTKLEIKRADAAPTVSIFPPSMEQLTSGGATVVCFVNNFYPRDISVKWKIDGSEQRDGVLDSVTDQDSKDSTYSMSSTLSLTKVEYERHNLYTCEVVHKTSSSPVVKSFNRNEC
notes: one arm for each target; also called mUniTI-01
- EC50 (mouse CSF1R): 1 nM
- EC50 (mouse CCR2): 15 nM
- EC50 [1]: 0.4 nM
